# Data from patent publication US20050100965A1 (published 2005).
# Several values for one entry are separate records, joined by “and”; a condition that tells them apart may be missing. Identical values can stand only once.
# Molecular target: NEM-huIL-18 (human, UniProt Q14116 37-193, cysteines treated with N-ethyl maleiamide (NEM))
# Assay: cell-based or functional assay
row,Binder,"KG-1 Assays (IC50, M)"
1,"HuMAb 2.5.1 (antibody, V domains shown) VH: ZVQLVQSGTEVKKPGESLKISCKGSGYTVTSYWIGWVRQMPGKGLEWMGFIYPGDSETRYSPTFQGQVTISADKSFNTAFLQWSSLKASDTAMYYCARVGSGWYPYTFDIWGQGTMVTVSS VL: not shown",3e-10 M and 4e-10 M
2,"HuMAb 268 (antibody, V domains shown) VH: ZVQLVESGGGVVQPGRSLRLSCAASGFTFRNYGLHWVRQAPGKGLEWVAVIWYDGSNKYYADSVKGRFTISRDNSKNTLYLQMNSLRAEDTAVYYCARESYYYYGMDVWGQGTTVTVSS VL: EIVMTQSPATLSVSPGERATLSCRASQSFNSNLVWYQQKPGQAPRLLIYGASTRATGIPARFSGSGSGTEFTLTISSLQSEDFAVYYCQQYNNWTWTFGQGTKVEIKR",7e-09 M
3,"HuMAb 435 (antibody, V domains shown) VH: ZLQLQESGPGLVKPSETLSLTCTVSGGSIDSRIYYWGWIRQPPGKGLEWIGSIYYRGSTYYNPSLKSRVTISVDTPKNQFSLKLNSVTAADTAVYYCAREDSSAWVFDYWGQGTLATVSS VL: EIVLTQSPGTLSLSPGERATLSCRASQSVRNNYLNWYQQKPGQAPRLLIYGAFSRATGIPDRFSGSGSGTDFTLTISSLEPEDFVVYYCQQYGNSIDSFGQGTKLEINR",8e-10 M and 7e-10 M and 4e-10 M
4,"HuMAb 351 (antibody, V domains shown) VH: ZVQLVESGGGVVQPGRSLRLSCAASGFTFSHYGMHWVRQAPGKGLEWVAVISYDGRNKYYVDSVKGRFTISRDNSKNTLYLQMNSLRAEDTAVFYCAREKGGSGWPPFYYYYGMDVWGQGTTVTVSS VL: DIVMTQTPLSLSVTPGQPASISCKSSQNLLYSDGETYLCWYLQKPGQPPQLLIYEVSNRFSGVPERFSGSGSGTDFTLKISRVEAEDVGIYYCMQNVQLPLTFGGGTRVEIKR",2e-10 M
5,"HuMAb 2.13.1 (antibody, V domains shown) VH: ZVQLQESGPGLVTPSQTLSLTCTVSGGSISSGGHYWTWIRQHPGKGLEWIGYIYYSGSTYYNPSLKSRLTISVDTSKNQFSLKLSSVAAADTAVYYCARDRGGSGSYWDYWGQGTLVTVSS VL: EIVLTQSPGTLSLSPGERATLSCRGSRSVSSGYLAWYQQKPGQAPRLLIYGVSIRATGIPDRFSGSGSGTDFTLTISRLEPEDFAVYYCQQYHGSPLTFGGGTKVEIKR",2e-10 M and 1e-10 M and 7e-11 M
6,"HuMAb 215 (antibody, V domains shown) VH: ZVQLQESGPGLVKPSQTLSLTCTVSGGSINSGDYYWSWIRQHPGKGLEWIGHISYRGTTYYNPSLKSRVTISVDTSKNQFSLKLSSVTAADTAVYCCARDRGGGFFDLWGRGTLVTVSS VL: EIVLTQSPGTLSLSPGERATLSCRASRSLSSGYLAWYQQKPGQAPRLLIYGASIRATGIPDRFSGSGSATDFTLTISRLEPEDFAVYYCQQYNYSPLTFGGGTRVEINR",1e-10 M and 3e-10 M
7,"HuMAb 413 (antibody, V domains shown) VH: ZTQLQESGPGLVKPSETLSLTCTVSGGSISSRVYYWGWIRQPPGKGLEWIGSIYYSGSTYYSPSLKSRVTISVDTSKNQFSLKLSSVTAADTAIYYCAREDSSAWVFEHWGQGTLVTVSS VL: EIVLTQSPDTLSLSPGERATLSCRASQILSRNYLAWYQQKPGQAPRLLIYGISIRATGIPDRFSGSGSGADFTLTINRLEPEDFAVYYCQHYDNSLCSFGQGTKLEVKR",1e-09 M and 7e-10 M

# Molecular target: T1, Biotinylated rhuIL-18 (biot-IL-18) (human, UniProt Q14116 37-193, NEM-treated cysteines; biotin on lysine residues (mixture with 1, 2, 3 or 4 biotins per huIL-18))
# T1 construct: also called biotinylated NEM-huIL-18; biotinylated IL-18
# Assay: biotinylated IL-18 ELISA, hybridoma or B cell supernatant
# Excerpt: An ELISA was developed to screen for antibodies that bind human IL-18. […] Hybridoma or B cell supernatants were applied and IL-18-bound antibodies were detected using HRP-conjugated anti-human IgGs, following standard ELISA protocols well known in the art.
row,Binder,binding result
1,"HuMAb 550 (antibody, V domains shown, KG-1 IC50 printed as TBD) VH: ZVQLQESGPGLVKPSQTLSLTCTVSGGSINSGGYYWSWIRQHPGKGLEWIGHISYRGTTYSNPSLKSRVTISVDTSKNQFSLKLSSVTAADTAVYYCARDRGGGFFDLWGRGTLVTVSS VL: EIVLTQSPGTLSLSPGERATLSCRASQSVNSGYLAWYQQKPGQAPRLLIYGVSIRATDIPDRFSGSGSATDFTLTISRLEPEDFAVYYCQQYGFSPLTFGGGTRVEINR",binds
